Test [1] concerns the target T1, monkey activated protein C (Macaca sp. (monkey plasma, species not …, UniProt A0A1D5QSH6)). Description: cell-based or functional assay.
The target in another test is human FXa (Homo sapiens, UniProt P00742). The test is described as follows: ELISA; data not shown; human FIIa, FVIIa, FIXa, FXa, FXIa, FXIIa coated directly on Maxisorp plates at 5–10 µg/mL; anti-APC antibodies at 20 nM. As to conditions: both partners purified. For orientation: An ELISA detects its analyte on a solid surface through an enzyme-linked reagent.
A further test addresses human FXIIa (Homo sapiens, UniProt P00748). The description is as above. The conditions noted are these: both partners purified.
A further test has as its target human FXIa (Homo sapiens, UniProt P03951). The test is described as above. As to conditions: both partners purified.
The next test has as its target human FVIIa (Homo sapiens, UniProt P08709). Described as above. The conditions noted are these: both partners purified.
The next test addresses T2, human FIIa (Homo sapiens, UniProt P00734).
T2 construct: human FIIa (thrombin), light chain; human FIIa (thrombin), heavy (catalytic) chain; also called thrombin
The test is described as above. The conditions noted are these: both partners purified.

A further test deals with human FIXa (Homo sapiens, UniProt P00740). The test is described as above. The conditions noted are these: both partners purified.
The target of test [2] is T3, rabbit activated protein C (Oryctolagus cuniculus, UniProt Q28661).
T3 construct: also called rabbit APC
The test is described as follows: ELISA; data not shown; species cross-reactivity; species' APC or PC coated directly on Maxisorp plates at 100 ng/well in PBS/Ca2+; antibodies titrated. As to conditions: both partners purified.

Another test has as its target T4, dog activated protein C (Canis lupus familiaris, UniProt Q28278).
T4 construct: also called dog APC
The description is as above. As to conditions: both partners purified.

In test [3] the target is T1, monkey activated protein C. The test is described as above. The conditions noted are these: both partners purified.
The target of test [4] is T5, plasma-derived hAPC-Gla-domainless (APC-GD) (Homo sapiens, UniProt P04070).
T5 construct: also called APC (in the crystal structures); source: bought: plasma-derived, Enzyme Research Laboratories
The test is described as follows: ELISA; APC-binding ELISA of the purified Fabs on human APC and Gla-domainless APC; format not told. As to conditions: both partners purified.

Test [5] concerns the target T6, human activated protein C (Homo sapiens).
T6 chain 1: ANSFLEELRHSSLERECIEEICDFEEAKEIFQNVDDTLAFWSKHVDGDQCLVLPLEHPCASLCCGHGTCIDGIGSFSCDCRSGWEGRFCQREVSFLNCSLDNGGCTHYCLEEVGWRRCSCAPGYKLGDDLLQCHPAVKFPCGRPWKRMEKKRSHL
T6 chain 2: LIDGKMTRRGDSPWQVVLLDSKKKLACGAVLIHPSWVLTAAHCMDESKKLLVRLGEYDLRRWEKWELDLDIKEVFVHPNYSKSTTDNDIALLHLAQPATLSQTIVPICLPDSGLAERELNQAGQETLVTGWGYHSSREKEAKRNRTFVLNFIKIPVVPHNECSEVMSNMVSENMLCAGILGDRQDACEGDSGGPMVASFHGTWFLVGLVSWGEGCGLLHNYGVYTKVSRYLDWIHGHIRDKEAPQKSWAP
Description: cell-based or functional assay.

The target of test [6] is T6, human activated protein C. Description: SPR; Biacore T200, 25 °C, HBS-P+ (10 mM HEPES pH 7.4, 150 mM NaCl, 0.05% P20) with 1 mg/mL BSA; mAbs captured by immobilised mouse anti-human Fc antibody on CM5; hAPC injected at 1.56-200 nM, hPC at 1.56-1000 nM; 1:1 Langmuir fit. As to conditions: both partners purified. On the technique in general: Surface plasmon resonance follows binding to a sensor surface in real time, without labels.

The target in test [7] is T7, human protein C (zymogen) (Homo sapiens, UniProt P04070).
T7 construct: human protein C zymogen, light chain; also called hPC; PC; source: bought: plasma-derived, Enzyme Research Laboratories
Described as above. As to conditions: both partners purified.

Test [8] deals with T8, monkey protein C (zymogen) (Macaca sp. (monkey plasma, species not …, UniProt A0A1D5QSH6)).
T8 construct: monkey protein C zymogen, light chain; also called monkey PC
The test is described as follows: ELISA; data not shown; species cross-reactivity; species' APC or PC coated directly on Maxisorp plates at 100 ng/well in PBS/Ca2+; antibodies titrated. As to conditions: both partners purified.

The target of test [9] is T9, Phe–Pro–Arg–chloromethylketone active-site-blocked APC (PPACK-hAPC) (Homo sapiens, UniProt P04070, active site blocked by Phe–Pro–Arg–chloromethylketone (PPACK)).
T9 construct: also called PPACK-APC
Description: ELISA; PPACK-hAPC or hAPC coated onto a MaxiSorp plate at 100 ng per well overnight; IgG or Fab at concentrations starting at 20 nM. As to conditions: both partners purified.

Test [10] has as its target T6, human activated protein C. The test is described as follows: ELISA; hAPC or hPC coated directly on Maxisorp plates at 100 ng/well in PBS/Ca2+; antibodies titrated, 1 h at RT; detection with HRP anti-human Fc. The conditions noted are these: both partners purified.

Substitutions are numbered along the chain they refer to. Names and notes keep the numbering of the source.

B1: type I anti-APC mAb TPP-2312 (BAY1316786) (antibody, V domains shown)
VH: EVQLLESGGGLVQPGGSLRLSCAASGFTFSSYWMSWVRQAPGKGLEWVSGVSWNGARTHYADSVKGRFTISRDNSKNTLYLQMNSLRAEDTAVYYCALTGRSGWMRFPNWFDPWGQGTLVTVSS
VL: QSVLTQPPSVSGAPGQRVTISCTGSSSNIGAAYDVHWYQQLPGTAPKLLIYGNNKRPSGVPDRFSGSKSGTSASLAITGLQAEDEADYYCQSYDSSLSGSVFGGGTKLTVL
notes: variable region as the heavy chain of C25K23 with S56A in CDR2, joined to the hIgG2 constant region (CH1-CH2-CH3); as the light chain of C25K23 with K55R in CDR2; hIgG2; Candidate C25K23 was germlined and optimized to become TPP-2312; also called type I mAb; source: HEK293-6E, transiently co-transfected (pTT5), purified (protein A, SEC)
For B1, the “Protac-aPTT in FVIII-antibody-induced hemophilia A monkey plasma, inhibition of APC anticoagulant activity, IC50” value in [1] was determined as 9.3 nM. Besides, the binding result with human FXa, with human FXIIa, with human FXIa, in the test with human FVIIa, with human FIIa and in the test with human FIXa was “no binding (tested: 20 nM)” throughout. Besides, the EC50 (in test [2]; with dog activated protein C; in [3]) was approximately 1 nM throughout.

B2: C25K23Fab (type I Fab, TTP-2781) (Fab, V domains shown)
VH: B1 VH with A56S, S123T
VL: B1 VL with V10A, A13T, T78S, Q81R, A82S
notes: Parent of TPP-2312; also called type I (C25K23) Fab; source: E. coli, purified (Protein A chromatography)
On to B2, for which the EC50 in test [4] was in the range of 2 to 4 nM.

B3: type II anti-APC mAb TPP-4885 (BAY1896502) (antibody, V domains shown)
VH: EVQLVESGGGLVQPGGSLRLSCAASGFTFSNYYLNWVRQAPGKGLEWVGDIRLKSNNYEKHYAESVKGRFTISRDDSKNSLYLQMNSLKTEDTAVYYCAREGDYFDYWGQGTLVTVSS
VL: DIVLTQSPASLAVSPGQRATITCKASESVDSFGATFMHWYQQKPGQPPKLLIYLASNLESGVPARFSGSGSGTDFTLTINPVEADDTANYYCQQNNEDPYTFGQGTKLEIK
notes: humanized/optimized from mouse HAPC1573; variable region from the Fab joined to the hIgG2 constant region (CH1-CH2-CH3); humanized/optimized from mouse HAPC1573 (kappa); hIgG2; Derived from HAPC1573 (mIgG1/k) by humanization and optimization; also called type II mAb; BAY 1896052; source: HEK293-6E, transiently co-transfected (pTT5), purified (protein A, SEC)
Regarding B3, the “Protac-aPTT in FVIII-antibody-treated normal human plasma, IC50” value in test [5] was determined as 12 nM. Also, the “Protac-aPTT in hemophilia A plasma, inhibition of APC activity, IC50” value in test [5] is 11.6 nM. Also, the “Protac-aPTT in normal human plasma, inhibition of APC anticoagulant activity, IC50” value in test [5] is approximately 7 nM. For the same molecule, in test [1], the “Protac-aPTT in FVIII-antibody-induced hemophilia A monkey plasma, inhibition of APC anticoagulant activity, IC50” value is 19.3 nM. The binding result in the test with human FXa, with human FXIIa, in the test with human FXIa, in the test with human FVIIa, with human FIIa and with human FIXa was “no binding (tested: 20 nM)” in each case. Further, the binding result was “no binding (tested: 1000 nM)” in test [7]; “no binding” in test [2]; “no binding” with dog activated protein C; “no binding” in [8]; “binds” in test [9]. Besides, in test [6], binding was characterised by a dissociation constant (Kd) of 10 nM. The EC50 in test [3] was approximately 1 nM; in test [10], 0.8 nM.

B4: hu1573Fab (type II Fab, TPP-5040) (Fab, V domains shown)
VH: B3 VH
VL: B3 VL
notes: Humanized Fab of mouse HAPC1573; also called h1573Fab; type II (h1573) Fab; source: QMCF cells (CHO-based), transiently transfected (pTT5), purified from conditioned medium (KappaSelect, SEC)
With B4, the binding result in test [9] is “binds”.

What is called EC50 is the concentration needed to bring the measured effect to its halfway point. The term Kd denotes the constant that tells how readily two partners part at equilibrium.

The values are drawn from publication PMC7293249 (Nature Communications, 2020).
